US20240100181A1 (AbbVie / Abbott, published 2024)

Assays:
human CD19 [1] = biological target: T1, human CD19 (human, UniProt P15391 20-556); assay: cell-based or functional assay
T1 sequence (looked up): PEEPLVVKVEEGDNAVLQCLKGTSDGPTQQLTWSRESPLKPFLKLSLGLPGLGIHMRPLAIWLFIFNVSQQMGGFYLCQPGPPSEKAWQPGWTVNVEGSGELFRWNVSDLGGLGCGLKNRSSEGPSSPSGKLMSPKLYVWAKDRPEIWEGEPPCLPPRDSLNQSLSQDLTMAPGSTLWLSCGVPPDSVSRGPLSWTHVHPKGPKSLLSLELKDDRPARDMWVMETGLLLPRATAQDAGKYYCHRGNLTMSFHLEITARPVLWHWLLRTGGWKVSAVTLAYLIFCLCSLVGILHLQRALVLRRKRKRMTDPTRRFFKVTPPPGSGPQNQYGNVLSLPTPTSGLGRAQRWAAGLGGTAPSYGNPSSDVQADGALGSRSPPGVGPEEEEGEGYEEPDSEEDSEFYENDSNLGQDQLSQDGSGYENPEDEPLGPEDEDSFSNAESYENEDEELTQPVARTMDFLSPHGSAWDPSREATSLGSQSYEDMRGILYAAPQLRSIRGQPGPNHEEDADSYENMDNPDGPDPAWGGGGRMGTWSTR

[2] = biological target: FcγRIIIa F158 variant (low-affinity allotype) (human, UniProt P08637 17-254); assay: cell-based or functional assay
Sequence of FcγRIIIa F158 variant (low-affinity allotype) (P08637 17-254, change not shown): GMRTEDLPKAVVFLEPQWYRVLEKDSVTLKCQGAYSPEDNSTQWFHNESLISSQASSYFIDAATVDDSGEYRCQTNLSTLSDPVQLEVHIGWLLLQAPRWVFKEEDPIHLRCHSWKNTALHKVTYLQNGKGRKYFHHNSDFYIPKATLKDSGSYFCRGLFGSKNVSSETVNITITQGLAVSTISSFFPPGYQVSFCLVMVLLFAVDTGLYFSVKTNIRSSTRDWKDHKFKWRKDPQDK

human CD19 [3] = biological target: T1, human CD19; assay: cell-based or functional assay; remark: listed apart in the source
[4] = biological target: FcγRIIIa V158 variant (high-affinity allotype) (human, UniProt P08637 17-254); assay: cell-based or functional assay
Sequence of FcγRIIIa V158 variant (high-affinity allotype) (P08637 other isoform, or with tags, fused parts or gaps mutant limits assumed): as the sequence (P08637 17-254, change not shown) above, with F160V counted along it

human CD19 [5] = biological target: T1, human CD19; assay: flow cytometry on OCI-LY19 (DLBCL) cells, endogenous CD19; average of two experiments
human CD19 [6] = biological target: T1, human CD19; assay: flow cytometry on Raji (BL) cells, endogenous CD19; average of two experiments
human CD19 [7] = biological target: T1, human CD19; assay: flow cytometry on SUP-B15 (ALL) cells, endogenous CD19; average of two experiments
human CD19 [8] = biological target: T1, human CD19; assay: flow cytometry on RS4; 11 (ALL) cells, endogenous CD19; average of two experiments

B1: ADC-1 (CD19 Phosphorylated GRM agonist ADC: CD19 mAb conjugated to the drug linker of Formula V) (other)
heavy: EVQLVESGGGLVQPGGSLRLSCAASGFTFTTYWINWVRQAPGKGLEWIGNIYPSDSYTNYNQKFKDRATLSVDKSKNTAYLQMNSLRAEDTAVYYCTREDYYGSSSYYAMDYWGQGTLVTVSSASTKGPSVFPLAPSSKSTSGGTAALGCLVKDYFPEPVTVSWNSGALTSGVHTFPAVLQSSGLYSLSSVVTVPSSSLGTQTYICNVNHKPSNTKVDKKVEPKSCDKTHTCPPCPAPELLGGPSVFLFPPKPKDTLMISRTPEVTCVVVDVSHEDPEVKFNWYVDGVEVHNAKTKPREEQYNGSTYRVVSVLTVLHQDWLNGKEYKCKVSNKALPAPIEKTISKAKGQPREPQVYTLPPSREEMTKNQVSLTCLVKGFYPSDIAVEWESNGQPENNYKTTPPVLDSDGSFFLYSKLTVDKSRWQQGNVFSCSVMHEALHNHYTQKSLSLSPGK
light: AILMTQSPSSLSASVGDRVTITCKASQDVGTAVAWYQQKPGKAPKLLIYWASTRHTGVPSRFSGSGSGTDFTLTISSLQPEDFATYYCQQYSTYPLTFGQGTKVEIKRTVAAPSVFIFPPSDEQLKSGTASVVCLLNNFYPREAKVQWKVDNALQSGNSQESVTEQDSKDSTYSLSSTLTLSKADYEKHKVYACEVTHQGLSSPVTKSFNRGEC
modifications: zero or one phosphate-GRM drug linker molecule (Formula V) attached via cysteine -S-; cysteine position not stated; afucosylated at ASN-300 (EU: ASN-297); zero, one, two or three phosphate-GRM drug linker molecules (Formula V, Ala-Ala linker) attached via cysteine -S-; cysteine positions not stated
anti-proliferative assay EC50, KARPAS422 (DLBCL) (human CD19 [1]): 0.21 nM
anti-proliferative assay EC50, OCI-LY19 (DLBCL) (human CD19 [1]): 103 nM
anti-proliferative assay EC50, RS4; 11 (ALL) (human CD19 [1]): 0.082 nM
anti-proliferative assay EC50, SU-DHL-6 (DLBCL) (human CD19 [1]): 0.311 nM
anti-proliferative assay EC50, SUP-B15 (ALL) (human CD19 [1]): 0.321 nM
ADCC NFAT reporter activation (Jurkat reporter cells, Raji target cells) [2]: 0.018 nM
PBMC co-culture ADCC, specific lysis EC50 (RS4; 11, Raji, KARPAS422) (human CD19 [3]): 0.07 to 0.142 nM
ADCC NFAT reporter activation (Jurkat reporter cells, Raji target cells) [4]: 0.017 nM

B2: CD19 mAb (humanized, afucosylated anti-CD19 IgG1 kappa monoclonal antibody of Example 1) (antibody)
heavy: B1 heavy
light: B1 light
modifications: afucosylated N-glycan at ASN-300 (EU: ASN-297), greater than or equal to 90% afucosylated
notes: Human IgG1, kappa; Made in CHO cells expressing Pseudomonas RMD; also called CD19 antibody; humanized anti-CD19 antibody
EC50 (human CD19 [5]): 0.836 nM
EC50 (human CD19 [6]): 0.713 nM
ADCC NFAT reporter activation (Jurkat reporter cells, Raji target cells) [2]: 0.023 nM
ADCC NFAT reporter activation (Jurkat reporter cells, Raji target cells) [4]: 0.027 nM
EC50 (human CD19 [7]): 0.683 nM
EC50 (human CD19 [8]): 0.401 nM
